Test results: patent US20170072032A1

Tests used:
[1] = target: recombinant mouse FcRn, biotinylated, immobilized on sensor chip (mouse) (UniProt Q61559); assay: SPR (Biacore), immobilized biotinylated mouse FcRn, analyte 0.78-100 nM, pH 5.4; Chi2 10.1
[2] = target: recombinant mouse FcRn, biotinylated, immobilized on sensor chip (mouse) (UniProt Q61559); assay: SPR (Biacore), immobilized biotinylated mouse FcRn, analyte 0.78-100 nM, pH 6.4; Chi2 0.3
[3] = target: recombinant mouse FcRn, biotinylated, immobilized on sensor chip (mouse) (UniProt Q61559); assay: SPR (Biacore), immobilized biotinylated mouse FcRn, analyte 0.78-100 nM, pH 6.4; Chi2 3.9
[4] = target: recombinant mouse FcRn, biotinylated, immobilized on sensor chip (mouse) (UniProt Q61559); assay: SPR (Biacore), immobilized biotinylated mouse FcRn, analyte 0.78-100 nM, pH 5.4; Chi2 2.5
[5] = target: recombinant mouse FcRn, biotinylated, immobilized on sensor chip (mouse) (UniProt Q61559); assay: SPR (Biacore 2000), biotinylated mouse FcRn immobilized, analyte 0.78-200 nM, pH 5.4, 25 C, Langmuir fit with drifting baseline
[6] = target: recombinant human FcRn, biotinylated, immobilized on sensor chip (human) (UniProt P55899); assay: SPR (Biacore 2000), biotinylated human FcRn immobilized, analyte 0.78-200 nM, pH 5.4, 25 C, Langmuir fit with drifting baseline
UniProt P55899, sequence (P55899 24-297 limits assumed, form in doubt, chain 1 of 2): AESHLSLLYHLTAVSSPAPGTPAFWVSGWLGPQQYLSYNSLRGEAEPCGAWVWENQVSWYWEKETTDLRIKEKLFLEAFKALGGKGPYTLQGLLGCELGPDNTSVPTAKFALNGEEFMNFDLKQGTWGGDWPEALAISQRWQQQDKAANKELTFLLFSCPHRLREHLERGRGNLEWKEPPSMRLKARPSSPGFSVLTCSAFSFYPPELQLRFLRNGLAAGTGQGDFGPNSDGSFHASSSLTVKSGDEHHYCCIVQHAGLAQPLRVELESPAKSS
UniProt P55899, sequence (chain, as listed by the source limits assumed, form in doubt, chain 2 of 2): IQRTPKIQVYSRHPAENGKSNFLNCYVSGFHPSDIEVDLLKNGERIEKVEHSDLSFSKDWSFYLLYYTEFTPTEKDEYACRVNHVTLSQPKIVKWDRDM

[7] = target: neonatal Fc receptor (FcRn), endogenous mouse receptor in placenta / syncytiotrophoblast cells (mouse) (UniProt Q61559); assay: cell-based or functional assay

A2Fc (A2 domain of FVIII fused to mouse Fc gamma 1) (from UniProt P00451 392-759) (Fc fusion)
Kd [1]: 8.53 nM
koff [1]: 0.00218 s⁻¹
kon [1]: 256000 M⁻¹ s⁻¹
Kd [2]: 52.9 nM
koff [2]: 0.0016 s⁻¹
kon [2]: 30000 M⁻¹ s⁻¹

C2Fc (C2 domain of FVIII fused to mouse Fc gamma 1) (from UniProt P00451 2192-2351) (Fc fusion)
Kd [3]: 53 nM
koff [3]: 0.00347 s⁻¹
kon [3]: 65000 M⁻¹ s⁻¹
Kd [4]: 3.7 nM
koff [4]: 0.0011 s⁻¹
kon [4]: 292000 M⁻¹ s⁻¹

PPI2-Fc fusion protein (mouse preproinsulin 2 fused to the CH2-CH3 Fc domain of human IgG1) (from UniProt P01326 25-110)
Kd [5]: 5.4 nM
koff [5]: 0.00159 s⁻¹
kon [5]: 292000 M⁻¹ s⁻¹
Kd [6]: 15.3 nM
koff [6]: 0.00318 s⁻¹
kon [6]: 208000 M⁻¹ s⁻¹

anti-CD20 rituximab monoclonal antibody (Roche), used as human IgG1 control
diabetes-free offspring after IgG pre-treatment of pregnant mice 24 h before PPI-Fc (% diabetes-free mice) [7]: 49
Kd [5]: 1.5 nM
koff [5]: 0.00248 s⁻¹
kon [5]: 1.63e+06 M⁻¹ s⁻¹
Kd [6]: 6.4 nM
koff [6]: 0.00492 s⁻¹
kon [6]: 765000 M⁻¹ s⁻¹
